In assay [1] the target is T1, membrane associated human B7.1 on cells (human, UniProt P33681 35-288).
T1 sequence (looked up): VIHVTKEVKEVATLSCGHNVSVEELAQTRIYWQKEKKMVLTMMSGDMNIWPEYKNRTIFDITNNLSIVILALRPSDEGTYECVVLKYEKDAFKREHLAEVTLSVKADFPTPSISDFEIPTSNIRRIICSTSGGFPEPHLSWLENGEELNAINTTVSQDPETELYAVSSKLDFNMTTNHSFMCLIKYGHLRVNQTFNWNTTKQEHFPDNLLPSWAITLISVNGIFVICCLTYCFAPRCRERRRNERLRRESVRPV
Kind of assay: cell-based or functional assay.

Assay [2] concerns the target T2, B7.1/Ig fusion protein (human, UniProt P33681 35-242, 125I radiolabel where used as tracer).
T2 construct: Secreted from CHO cells; also called B7-Ig; not shown: human immunoglobulin CH2 and CH3 domains of the NEOSPLA cassette vector; isotype
T2 sequence (looked up): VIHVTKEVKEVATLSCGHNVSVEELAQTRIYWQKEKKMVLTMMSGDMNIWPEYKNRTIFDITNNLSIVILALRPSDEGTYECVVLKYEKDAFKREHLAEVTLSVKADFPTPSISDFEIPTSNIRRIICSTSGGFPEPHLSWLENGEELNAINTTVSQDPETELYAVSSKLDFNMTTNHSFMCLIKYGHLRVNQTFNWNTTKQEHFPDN
The assay is described as follows: Scatchard analysis, binding to B7-Ig coated plates.

The target of assay [3] is T2, B7.1/Ig fusion protein. Kind of assay: Scatchard analysis, binding to B7-Ig coated plates. This is another data set of the same source.

Read-outs that look alike come from different tables or passages of the source.

The source of these data is patent US6893638.

B1: monkey monoclonal anti-B7.1 antibody 7B6 (antibody, V domains shown)
VH: EVQLVESGGGLVQPGGSLRVSCAVSGFTFSDHYMYWFRQAPGKGPEWVGFIRNKPNGGTTEYAASVKDRFTISRDDSKSIAYLQMSSLKIEDTAVYYCTTSYISHCRGGVCYGGYFEFWGQGALVTVSS
VL: EVVMTQSPLSLPITPGEPASISCRSSQSLKHSNGDTFLSWYQQKPGQPPRLLIYKVSNRDSGVPDRFSGSGAGTDFTLKISAVEAEDVGVYFCGQGTRTPPTFGGGTKVEIK
notes: Tested as the original cynomolgus monkey Ig from a heterohybridoma
On to B1, for which the “inhibit IL-2 production in mixed lymphocyte reaction” value (shortened to “inhibit IL-2 production”) in assay [1] was 5 µg/mL. The Kd in assay [2] and in assay [3] was around 10.7 nM throughout.

B2: monkey monoclonal anti-B7.1 antibody 7C10 (antibody, V domains shown)
VH: QVKLQQWGEGLLQPSETLSRTCVVSGGSISGYYYWTWIRQTPGRGLEWIGHIYGNGATTNYNPSLKSRVTISKDTSKNQFFLNLNSVTDADTAVYYCARGPRPDCTTICYGGWVDVWGPGDLVTVSS
VL: AYELTQPPSVSVSPGQTARITCGGDNSRNEYVHWYQQKPARAPILVIYDDSDRPSGIPERFSGSKSGNTATLTINGVEAGDEADYYCQVWDRASDHPVFGGGTRVTVL
notes: Tested as the original cynomolgus monkey Ig from a heterohybridoma; A leader may be included in the entries; also called 7C10 monkey Ig
For B2, in assay [1], the “inhibit IL-2 production” value was 5 µg/mL. The Kd in assay [2] and in assay [3] was around 6.2 nM each time.

B3: monkey monoclonal anti-B7.1 antibody 16C10 (antibody, V domains shown)
VH: QVQLQESGPGLVKPSETLSLTCAVSGGSISGGYGWGWIRQPPGKGLEWIGSFYSSSGNTYYNPSLKSQVTISTDTSKNQFSLKLNSMTAADTAVYYCVRDRLFSVVGMVYNNWFDVWGPGVLVTVSS
VL: ESVLTQPPSVSGAPGQKVTISCTGSTSNIGGYDLHWYQQLPGTAPKLLIYDINKRPSGISDRFSGSKSGTAASLAITGLQTEDEADYYCQSYDSSLNAQVFGGGTRLTVL
notes: as for B1
Turning to B3, the “inhibit IL-2 production” value in assay [1] amounted to 0.1 µg/mL. Also, the Kd in assay [2] and in assay [3] was around 8.1 nM each time.

In general, Kd refers to the constant that tells how readily two partners part at equilibrium. Read a low Kd as tighter binding.
